Measured values: patent US20190161754A1, “FLUORESCENT BIOSENSOR FOR 2', 3'-CGAMP” (The Regents of the University of California, priority 2016, published 2019)
Starred links: 1 amine or outer side, 2 acyl side, 3 side chain; linkers in the order of their positions; H or OH if unused. Positions of bridges follow the written chain, without caps; N, C: chain ends. Non-standard residues stand in square brackets, D forms with d. Residues, ends and D or L forms follow the SMILES beside them. Chains are numbered I, II in the order given. Actinocin(9to1) = Cc1c2oc3c(C)ccc(C(=O)[*:1])c3nc-2c(C(=O)[*:2])c(N)c1=O; NMeV = CN[C@H](C(=O)O)C(C)C; Sar = CNCC(=O)O

Tests used:
[1] = target: T1, cGAS (Homo sapiens, UniProt Q8N884); assay: Thin-layer chromatography based (radiolabeled TLC) cGAS activity assay with DNA intercalators; assay type: biochemical; design: DNA-dependent human cGAS activity was assayed with recombinant full-length cGAS and HT-DNA; implied by Ni-NTA capture and imidazole elution; made in house; host or cells: BL21-RIL DE3 E. coli; conditions: 100 μM concentration
Experimental: Quinacrine intercalation can lengthen the B-form DNA helix but otherwise would not grossly alter conformation (Hossain et al., (2008). DNA intercalation by quinacrine and methylene blue: a comparative binding and thermodynamic characterization study. DNA Cell Biol 27, 81-90). To support the proposed mechanism of action, other DNA intercalators were tested for effects on cGAS activity. The radiolabeled TLC assay was employed in order to avoid possible complications in data interpretation from compounds interacting with the RNA biosensor. […] Importantly, the enzyme-independent effect of compounds on fluorescence of the RNA biosensors can easily be analyzed in control reactions, which allows one to distinguish compounds in the screen that likely interact with the DNA instead of the enzyme directly.
DNA-dependent human cGAS activity was assayed with recombinant full-length cGAS and HT-DNA (Sigma-Aldrich, St Louis, Mo.). cGAS (estimated final concentration 1.5 μM) or equal volumes of water were incubated with HT-DNA (final concentration 0.1 mg/ml) in the presence of 250 μM ATP and GTP and [a-32P] ATP or GTP (˜30 nM) as indicated. All reactions included 100 mM NaCl, 10 mM MgCl2, 40 mM Tris-HCl (pH 7.5), and reactions were incubated at 37° C. for 1.5 hr. Reactions were terminated with the addition of 5 U of alkaline phosphatase (New England Biolabs) and incubation at 37° C. for 30 min. One microliter of each reaction was spotted onto a PEI-Cellulose F thin-layer chromatography plate (EMD Millipore), and reaction products were separated with the use of 1.5 M KH2PO4 (pH 3.8) as solvent. Plates were dried and radiolabeled products were detected with a phosphor screen and the Typhoon phosphorimager (GE Life Sciences).

[2] = target: T1, cGAS; assay: cGAS inhibition assay read out by RNA-based fluorescent biosensor; assay type: biochemical; design: implied by Ni-NTA capture and imidazole elution; made in house; host or cells: BL21-RIL DE3 E. coli; conditions: decrease of signal independent of enzyme activity, called artefactual, read-out: apparent IC50
Experimental: To initiate the enzyme reaction, 0.5 μL of HT-DNA was added to 2.5 μL of 6× enzyme reaction solution containing cGAS, GTP, ATP and cGAS reaction buffer. Generally, final concentrations are 100m/mL HT-DNA, 1.5 μM cGAS, 200 μM GTP, 200 μM ATP, and cGAS reaction buffer (40 mM Tris-HCl (pH 7.5), 100 mM NaCl, 10 mM MgCl2). The reaction was incubated at 37° C. for 2 hours to allow the enzyme reaction to proceed. […] To initiate the fluorescent biosensor reaction, 3 μL of the enzyme reaction was added to 27 μL of biosensor reaction solution containing renatured RNA, DFHBI (or DFHBI-1T), and biosensor activation buffer. Final concentrations are 200 nM RNA, 10 μM DFHBI (or DFHBI-1T), 40 mM HEPES, pH 7.5, 125 mM KCl, 10 mM MgCl2, and 0.1×cGAS reaction buffer (40 mM Tris-HCl (pH 7.5), 100 mM NaCl, 10 mM MgCl2). […] For the inhibition assay, due to the fluorescence of Quinacrine dihydrochloride, DFHBI-1T was used instead. Samples containing only Quinacrine dihydrochloride of varied concentration in the buffer were used for background fluorescence subtraction.

[3] = test system: Spinach2 aptamer; assay: Fluorescence of dye-binding Spinach2 aptamer in presence of quinacrine (control); conditions: dose-dependent (FIG. 10)
Description: FIG. 10 illustrates dose-dependent loss of fluorescence in presence of QC for both the 2′, 3′-cGAMP biosensor and Spinach2 aptamer.
Quinacrine is a DNA intercalator that may disrupt biosensor function by intercalating into the RNA helices.

[4] = test system: cGAS; conditions: radiolabeled TLC assay, Gray et al. 2015; cited from earlier work
[5] = In vitro fluorescence assay of GEMM-II riboswitch-based biosensors with c-di-GMP (binding affinity, turn-on); conditions: for Kd: ligand c-di-GMP; for fold turn-on: 100 nM RNA, 100 μM c-di-GMP
Experimental: (§1) In vitro fluorescence assays were carried out in a buffer containing 40 mM HEPES, pH 7.5, 125 mM KCl. Other conditions, including temperature, concentrations of MgCl2, DFHBI (or DFHBI-1T), ligand (or cell extract) and RNA were varied in different experiments and are indicated in the figures. The RNA was renatured in buffer at 70° C. for 3 min and cooled to ambient temperature for 5 min prior to addition to the reaction solution. DFHBI (or DFHBI-1T) was added to a solution containing buffer and ligand, and then RNA was added at the end before fluorescence measurement. Binding reactions were performed either in 100 μL volumes (96-well plate) or 30 μL (384-well plate) and were incubated at the indicated temperature in either a Corning Costar 3915 96-well black plate or Greiner 781077 384-well black plate until equilibrium was reached, which typically takes 30 to 60 minutes. The fluorescence emission was measured using a Molecular Devices SpectraMax Paradigm Multi-Mode detection platform plate reader (Sunnyvale, Calif.) with the following instrument parameters (for DFHBI): 448 nm excitation, 506 nm emission. In case of DFHBI-1T 470 nm excitation and 510 nm emission was used.
(§2) To measure the binding affinities of 2′, 3′-cGAMP biosensors, fluorescence assays were performed with the following conditions: 37° C., 3 mM MgCl2, 200 nM RNA, and 10 μM DFHBI. The 2′, 3′-cGAMP concentration (ccGAMP) was varied, and the fluorescence of the sample with DFHBI but no RNA was subtracted as background to determine relative fluorescence units. The ratio between the fraction of biosensor that is bound by 2′, 3′-cGAMP and the total 2′, 3′-cGAMP biosensor concentration is given as:
(§3) where Fmin is the fluorescence of the sample containing no 2′,3′-cGAMP, while Fmax is the fluorescence of the sample containing highest concentration of 2′,3′-cGAMP (100 μM). The dissociation constants Kd were determined by least squares fitting to the following equation in Graphpad Prism software: […]

[6] = In vitro fluorescence assay of GEMM-II riboswitch-based biosensors with 2′,3′-cGAMP (binding affinity, turn-on); conditions: for fold turn-on / Kd: 200 nM RNA; for fold turn-on: 100 μM 2′,3′-cGAMP; for Kd: ligand 2′,3′-cGAMP, 37° C., 3 mM Mg2+, 10 μM DFHBI, read-out: Kd (apparent dissociation constant)
Experimental: as §1, §2, §3

[7] = In vitro fluorescence assay of GEMM-II riboswitch-based biosensors with 3′,3′-cGAMP (binding affinity, turn-on); conditions: for fold turn-on: 100 nM RNA, 100 μM 3′,3′-cGAMP; for Kd: ligand 3′,3′-cGAMP
Experimental: as §1, §2, §3

[8] = test system: E. coli BL21-Star cells; assay: In vivo fluorescence assay by flow cytometry, biosensor co-expressed with cyclic dinucleotide synthases (WspR, DncV, cGAS); conditions: live E. coli, DFHBI-1T, DncV or cGAS co-expressed

T1 sequence (Q8N884 whole entry): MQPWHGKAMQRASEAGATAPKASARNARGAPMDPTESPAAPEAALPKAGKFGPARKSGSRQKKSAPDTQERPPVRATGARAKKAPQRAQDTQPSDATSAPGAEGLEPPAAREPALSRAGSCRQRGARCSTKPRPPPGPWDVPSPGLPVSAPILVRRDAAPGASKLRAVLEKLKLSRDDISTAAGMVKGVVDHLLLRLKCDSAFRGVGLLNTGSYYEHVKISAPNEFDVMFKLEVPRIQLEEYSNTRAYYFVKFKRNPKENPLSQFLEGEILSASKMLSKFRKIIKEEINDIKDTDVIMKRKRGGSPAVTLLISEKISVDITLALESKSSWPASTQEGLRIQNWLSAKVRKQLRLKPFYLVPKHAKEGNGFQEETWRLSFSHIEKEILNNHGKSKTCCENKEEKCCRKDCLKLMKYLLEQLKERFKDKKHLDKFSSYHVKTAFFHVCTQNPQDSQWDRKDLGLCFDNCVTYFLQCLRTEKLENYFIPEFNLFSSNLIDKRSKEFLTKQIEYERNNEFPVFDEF

Molecule | inhibition of cGAS activity [1] | Kd [5] [µM] | fold turn-on [6] | Kd [6] [µM] | fold turn-on [7] | Kd [7] [µM] | fold turn-on [5] | other results
Cc1c2oc3c(C)ccc(C(=O)N[C@@H]4C(=O)N[C@H](C(C)C)C(=O)N5CCC[C@H]5C(=O)N(C)CC(=O)N(C)[C@@H](C(C)C)C(=O)O[C@@H]4C)c3nc-2c(C(=O)N[C@@H]2C(=O)N[C@H](C(C)C)C(=O)N3CCC[C@H]3C(=O)N(C)CC(=O)N(C)[C@@H](C(C)C)C(=O)O[C@@H]2C)c(N)c1=O [Actinomycin D] (I: T[dV]P[Sar][NMeV] / II: T[dV]P[Sar][NMeV]; ester I:1-I:C, II:1-II:C; linker I:N-II:N via Actinocin(9to1)) | partial inhibition |  |  |  |  |  |  | 
CCN(CC)CCCC(C)Nc1c2ccc(Cl)cc2nc2ccc(OC)cc12 (centres unmarked) [Quinacrine] | fully inhibited |  |  |  |  |  |  | IC50 [2]: 39 ± 7 µM; effect on fluorescence of Spinach2 aptamer [3]: decreased fluorescence; IC50 [4]: 13 µM
CN(C)c1ccc2nc3ccc(=[N+](C)C)cc-3sc2c1 [methylene blue] | no effect |  |  |  |  |  |  | 
Bh P1-5delC: Bh GEMM-II riboswitch fused to Spinach2 via 5 base-paired P1 stem with deletion of a single C, SEQ ID NO: 16 (nucleic acid, synthetic nucleic acid) GATGTAACTGAATGAAATGGTGAAGGACGGGTCCAATAGGGAAGCAACGAAGCATAGCCTTTATATGGACACTTGGGTTATGTGGAGCTACTAGTGTAACCGGCCCTCTTTGTTGAGTAGAGTGTGAGCTCCGTAACTAGTTACATC |  | 0.021 ± 0.008 | (5.1x) fold | 13.4 ± 0.9 |  |  |  | 
Bh P1-6 WT: GEMM-II riboswitch (Bacillus halodurans C-125)-Spinach2 biosensor, 6 base-paired P1 stem, SEQ ID NO: 12 (nucleic acid, synthetic nucleic acid) GATGTAACTGAATGAAATGGTGAAGGACGGGTCCAAATAGGGAAGCAACGAAGCATAGCCTTTATATGGACACTTGGGTTATGTGGAGCTACTAGTGTAACCGGCCCTCCTTTTGTTGAGTAGAGTGTGAGCTCCGTAACTAGTTACATC |  | 0.056 |  |  | (10.8x) fold | > 11 | (13.1x) fold | Kd ([7]; listed as wild-type Bh P1-6): > 10 µM; fluorescence activation with c-di-GMP ([5]; FIG. 17, panel B screen): 5 fold; fluorescence response to 2′,3′-cGAMP (in words) ([6]; 20 μM ligand): no response
Bh P1-6 G103A: Bh P1-6 biosensor with G103A mutation in the binding pocket, SEQ ID NO: 18; G73A in b172, b180 likely the same (nucleic acid, synthetic nucleic acid, G73A, b180 likely the same) GATGTAACTGAATGAAATGGTGAAGGACGGGTCCAAATAGGGAAGCAACGAAGCATAGCCTTTATATGGACACTTGGGTTATGTGGAGCTACTAGTGTAACCAGCCCTCCTTTTGTTGAGTAGAGTGTGAGCTCCGTAACTAGTTACATC |  | > 7.4 | (10.3) fold | > 65 | (9.6x) fold | 0.8 | (8.2x) fold | increase of binding affinity to 3′,3′-cGAMP relative to wild-type Bh P1-6 ([7]; G103A versus wild-type): more than 10 fold; reduction of binding affinity to c-di-GMP relative to wild-type Bh P1-6 ([5]; G103A versus wild-type): more than 125 fold; fluorescence activation in response to 2′,3′-cGAMP ([6]; 200 nM biosensor, 20 μM ligand): 5 fold; cellular fluorescence activation upon co-expression of each enzyme [8]: Significant fluorescence activation
